Results published in patent publication US12467929.

Experiments:
[1] = target: recombinant UBE3A protein (Homo sapiens (Human)) (UniProt Q05086); experiment: 2-step Simoa; capture GTX; UBE3A 1 ng/ml
[2] = target: recombinant UBE3A protein (Homo sapiens (Human)) (UniProt Q05086); experiment: 3-step Simoa; capture GTX; UBE3A 1 ng/ml
[3] = target: recombinant UBE3A protein (Homo sapiens (Human)) (UniProt Q05086); experiment: 2-step Simoa; capture GTX; UBE3A 10 ng/ml
[4] = target: recombinant UBE3A protein (Homo sapiens (Human)) (UniProt Q05086); experiment: 3-step Simoa; capture GTX; UBE3A 10 ng/ml
[5] = target: recombinant UBE3A protein (Homo sapiens (Human)) (UniProt Q05086); experiment: 2-step Simoa; capture Novus; UBE3A 1 ng/ml
[6] = target: recombinant UBE3A protein (Homo sapiens (Human)) (UniProt Q05086); experiment: 3-step Simoa; capture GTX; UBE3A 0.1 ng/ml
[7] = target: recombinant UBE3A protein (Homo sapiens (Human)) (UniProt Q05086); experiment: 3-step Simoa; capture Novus; UBE3A 1 ng/ml
[8] = target: recombinant UBE3A protein (Homo sapiens (Human)) (UniProt Q05086); experiment: 2-step Simoa; capture MS 2F6; UBE3A 1 ng/ml
[9] = target: recombinant UBE3A protein (Homo sapiens (Human)) (UniProt Q05086); experiment: 2-step Simoa; capture Novus; UBE3A 10 ng/ml
[10] = target: recombinant UBE3A protein (Homo sapiens (Human)) (UniProt Q05086); experiment: 3-step Simoa; capture GTX; UBE3A 0.01 ng/ml
[11] = target: recombinant UBE3A protein (Homo sapiens (Human)) (UniProt Q05086); experiment: 3-step Simoa; capture MS 2F6; UBE3A 1 ng/ml
[12] = target: recombinant UBE3A protein (Homo sapiens (Human)) (UniProt Q05086); experiment: 3-step Simoa; capture Novus; UBE3A 10 ng/ml
[13] = target: recombinant UBE3A protein (Homo sapiens (Human)) (UniProt Q05086); experiment: 2-step Simoa; capture GTX; UBE3A 0.01 ng/ml
[14] = target: recombinant UBE3A protein (Homo sapiens (Human)) (UniProt Q05086); experiment: 2-step Simoa; capture MS 2F6; UBE3A 10 ng/ml
[15] = target: recombinant UBE3A protein (Homo sapiens (Human)) (UniProt Q05086); experiment: 2-step Simoa; capture Novus; UBE3A 0.1 ng/ml
[16] = target: recombinant UBE3A protein (Homo sapiens (Human)) (UniProt Q05086); experiment: 3-step Simoa; capture MS 2F6; UBE3A 10 ng/ml
[17] = target: recombinant UBE3A protein (Homo sapiens (Human)) (UniProt Q05086); experiment: 3-step Simoa; capture Novus; UBE3A 0.1 ng/ml
[18] = target: recombinant UBE3A protein (Homo sapiens (Human)) (UniProt Q05086); experiment: 2-step Simoa; capture MS 2F6; UBE3A 0.1 ng/ml
[19] = target: recombinant UBE3A protein (Homo sapiens (Human)) (UniProt Q05086); experiment: 2-step Simoa; capture Novus; UBE3A 0.01 ng/ml
[20] = target: recombinant UBE3A protein (Homo sapiens (Human)) (UniProt Q05086); experiment: 3-step Simoa; capture MS 2F6; UBE3A 0.1 ng/ml
[21] = target: recombinant UBE3A protein (Homo sapiens (Human)) (UniProt Q05086); experiment: 3-step Simoa; capture Novus; UBE3A 0.01 ng/ml
[22] = target: recombinant UBE3A protein (Homo sapiens (Human)) (UniProt Q05086); experiment: 2-step Simoa; capture MS 2F6; UBE3A 0.01 ng/ml

Chain of UniProt Q05086 (Q05086 whole entry): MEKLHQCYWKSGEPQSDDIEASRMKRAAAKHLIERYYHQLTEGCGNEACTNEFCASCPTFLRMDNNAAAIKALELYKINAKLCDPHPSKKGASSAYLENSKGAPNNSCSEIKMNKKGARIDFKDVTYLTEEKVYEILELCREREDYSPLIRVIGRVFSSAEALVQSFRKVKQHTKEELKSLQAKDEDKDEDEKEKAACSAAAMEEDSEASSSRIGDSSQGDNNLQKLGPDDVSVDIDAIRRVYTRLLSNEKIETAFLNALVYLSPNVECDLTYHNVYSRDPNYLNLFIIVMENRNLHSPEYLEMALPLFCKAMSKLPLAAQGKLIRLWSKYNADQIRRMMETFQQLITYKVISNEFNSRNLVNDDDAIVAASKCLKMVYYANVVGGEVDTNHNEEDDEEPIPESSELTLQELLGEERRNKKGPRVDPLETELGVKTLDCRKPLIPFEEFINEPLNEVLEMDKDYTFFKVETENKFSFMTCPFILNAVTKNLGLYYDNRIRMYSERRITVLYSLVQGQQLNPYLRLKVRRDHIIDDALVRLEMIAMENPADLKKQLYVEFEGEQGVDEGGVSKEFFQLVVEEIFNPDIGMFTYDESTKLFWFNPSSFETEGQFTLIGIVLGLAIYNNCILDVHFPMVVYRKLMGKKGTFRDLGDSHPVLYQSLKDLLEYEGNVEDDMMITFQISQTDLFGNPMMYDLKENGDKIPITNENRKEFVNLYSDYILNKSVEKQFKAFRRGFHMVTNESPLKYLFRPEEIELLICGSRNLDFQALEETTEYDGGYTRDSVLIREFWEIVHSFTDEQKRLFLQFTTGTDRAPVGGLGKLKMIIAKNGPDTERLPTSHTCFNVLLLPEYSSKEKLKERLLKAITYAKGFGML

## GTX101092 (GeneTex) (antibody)
[1]
  AEB1: 0.0504
  AEB2: 0.053
  Ave AEB: 0.0517
  Signal to Background: 1.02
[2]
  AEB1: 0.0243
  AEB2: 0.0204
  Ave AEB: 0.0224
  Signal to Background: 1.05
[3]
  AEB1: 0.0957
  AEB2: 0.0942
  Ave AEB: 0.095
  Signal to Background: 1.88
[4]
  AEB1: 0.0337
  AEB2: 0.034
  Ave AEB: 0.0339
  Signal to Background: 1.59
[5]
  AEB1: 0.0503
  AEB2: 0.0488
  Ave AEB: 0.0496
  Signal to Background: 0.99
[6]
  AEB1: 0.0192
  AEB2: 0.0198
  Ave AEB: 0.0195
  Signal to Background: 0.91
[7]
  AEB1: 0.0264
  AEB2: 0.0248
  Ave AEB: 0.0256
  Signal to Background: 1.14
[8]
  AEB1: 0.0418
  AEB2: 0.0409
  Ave AEB: 0.0413
  Signal to Background: 0.62
[9]
  AEB1: 0.0616
  AEB2: 0.0585
  Ave AEB: 0.0601
  Signal to Background: 1.2
[10]
  AEB1: 0.019
  AEB2: 0.021
  Ave AEB: 0.02
  Signal to Background: 0.94
[11]
  AEB1: 0.0178
  AEB2: 0.0198
  Ave AEB: 0.0188
  Signal to Background: 1.01
[12]
  AEB1: 0.0258
  AEB2: 0.0245
  Ave AEB: 0.0252
  Signal to Background: 1.12
[13]
  AEB1: 0.0483
  AEB2: 0.0494
  Ave AEB: 0.0489
  Signal to Background: 0.97
[14]
  AEB1: 0.0412
  AEB2: 0.0418
  Ave AEB: 0.0415
  Signal to Background: 0.62
[15]
  AEB1: 0.0516
  AEB2: 0.0515
  Ave AEB: 0.0516
  Signal to Background: 1.03
[16]
  AEB1: 0.0251
  AEB2: 0.0292
  Ave AEB: 0.0271
  Signal to Background: 1.45
[17]
  AEB1: 0.0223
  AEB2: 0.0228
  Ave AEB: 0.0225
  Signal to Background: 1
[18]
  AEB1: 0.0426
  AEB2: 0.0425
  Ave AEB: 0.0426
  Signal to Background: 0.64
[19]
  AEB1: 0.0531
  AEB2: 0.0522
  Ave AEB: 0.0527
  Signal to Background: 1.05
[20]
  AEB1: 0.017
  AEB2: 0.0184
  Ave AEB: 0.0177
  Signal to Background: 0.95
[21]
  AEB1: 0.0217
  AEB2: 0.0245
  Ave AEB: 0.0231
  Signal to Background: 1.03
[22]
  AEB1: 0.0481
  AEB2: 0.0445
  Ave AEB: 0.0463
  Signal to Background: 0.69
